According to PMC2563036, “The HLH-6 Transcription Factor Regulates C. elegans Pharyngeal Gland Development and Function”:

Tests used:
[1] = target: HLH-2;HLH-3 (Caenorhabditis elegans;Caenorhabditis …, UniProt G5EEG9;Q22717 1-399;1-170, |); test: EMSA; co-translated in reticulocyte lysate; poly(dI-dC); EMSA with poly(dI-dC) (37 ng/ug as printed); 5% native PAGE, 100 V, 1 h, room temperature, 45 mM Tris, 45 mM boric acid, 1 mM EDTA pH 8; binding buffer not given in the material; conditions: protein: ivt;ivt; tags: ;His; copies: 1;1; as annealed 5' overhangs of 2 nt (TG) on both strands; end labelled with Klenow, which may fill them in
[2] = target: HLH-2;HLH-6 (Caenorhabditis elegans;Caenorhabditis …, UniProt G5EEG9;Q10007 1-399;1-268, |); test: EMSA; reticulocyte lysate; poly(dI-dC); no shift though both proteins expressed; EMSA with poly(dI-dC) (37 ng/ug as printed); 5% native PAGE, 100 V, 1 h, room temperature, 45 mM Tris, 45 mM boric acid, 1 mM EDTA pH 8; binding buffer not given in the material; conditions: protein: ivt;ivt; tags: ;; copies: 1;1; as annealed 5' overhangs of 2 nt (TG) on both strands; end labelled with Klenow, which may fill them in
Chain of HLH-2;HLH-6 (G5EEG9 whole entry, chain 1 of 2): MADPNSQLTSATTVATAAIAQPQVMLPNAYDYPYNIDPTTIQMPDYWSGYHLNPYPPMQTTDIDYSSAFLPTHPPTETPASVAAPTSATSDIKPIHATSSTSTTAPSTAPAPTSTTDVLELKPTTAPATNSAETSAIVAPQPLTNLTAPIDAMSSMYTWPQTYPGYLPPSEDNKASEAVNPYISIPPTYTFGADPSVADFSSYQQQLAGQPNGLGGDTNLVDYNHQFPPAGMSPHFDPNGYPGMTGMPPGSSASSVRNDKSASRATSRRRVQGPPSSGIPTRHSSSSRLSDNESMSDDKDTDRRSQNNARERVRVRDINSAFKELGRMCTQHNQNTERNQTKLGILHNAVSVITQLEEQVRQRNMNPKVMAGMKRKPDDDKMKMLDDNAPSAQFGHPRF
Chain of HLH-2;HLH-6 (Q10007 whole entry, chain 2 of 2): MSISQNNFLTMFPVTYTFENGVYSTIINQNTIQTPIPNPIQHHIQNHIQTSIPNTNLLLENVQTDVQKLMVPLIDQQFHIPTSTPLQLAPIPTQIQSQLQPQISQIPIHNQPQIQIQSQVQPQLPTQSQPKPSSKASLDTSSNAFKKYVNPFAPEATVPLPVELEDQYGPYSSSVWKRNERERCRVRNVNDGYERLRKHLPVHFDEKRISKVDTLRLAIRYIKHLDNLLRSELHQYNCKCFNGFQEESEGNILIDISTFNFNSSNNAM

Chain of HLH-2;HLH-3 (G5EEG9 whole entry, chain 1 of 2): as the sequence (G5EEG9 whole entry, chain 1 of 2) above
Chain of HLH-2;HLH-3 (Q22717 whole entry, chain 2 of 2): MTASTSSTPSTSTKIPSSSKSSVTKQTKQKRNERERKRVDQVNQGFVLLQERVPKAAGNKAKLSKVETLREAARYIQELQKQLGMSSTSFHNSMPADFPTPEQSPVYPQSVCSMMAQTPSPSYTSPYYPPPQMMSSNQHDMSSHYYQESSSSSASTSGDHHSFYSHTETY

B1: phat-3 PGM1 probe (oGD137/oGD138) (dsDNA)
DNA 1: TGCAAACTTGATGCACCTGTTCAAATGTATGCCC
DNA 2: TGGGGCATACATTTGAACAGGTGCATCAAGTTTG
- binding result [1]: binds
- binding result [2]: no binding
